Measurements from patent publication US20170260508A1 (FRED HUTCHINSON CANCER RESEARCH CENTER, published 2017).
One block for each binder: values may come before it.

B2: Angptl2-FLAG, full-length human Angptl2 secreted from transfected 293T cells (ligand)
chain: QEDGFEGTEEGSPREFIYLNRYKRAGESQDKCTYTFIVPQQRVTGAICVNSKEPEVLLENRVHKQELELLNNELLKQKRQIETLQQLVEVDGGIVSEVKLLRKESRNMNSRVTQLYMQLLHEIIRKRDNALELSQLENRILNQTADMLQLASKYKDLEHKYQHLATLAHNQSEIIAQLEEHCQRVPSARPVPQPPPAAPPRVYQPPTYNRIINQISTNEIQSDQNLKVLPPPLPTMPTLTSLPSSTDKPSGPWRDCLQALEDGHDTSSIYLVKPENTNRLMQVWCDQRHDPGGWTVIQRRLDGSVNFFRNWETYKQGFGNIDGEYWLGLENIYWLTNQGNYKLLVTMEDWSGRKVFAEYASFRLEPESEYYKLRLGRYHGNAGDSFTWHNGKQFTTLDRDHDVYTGNCAHYQKGGWWYNACAHSNLNGVWYRGGHYRSRYQDGVYWAEFRGGSYSLKKVVMMIRPNPNTFH
notes: Runs partly as a high molecular weight (>250 kD) multimer; also called full-length Angptl2; FLAG-tagged Angptl2; not shown: FLAG tag at the C terminus

Legend:
[1] = molecular target: T1, human LILRB2, wild-type full-length, on cells (human, UniProt Q8N423 22-597); test: flow cytometry, LILRB2 on 293T cells
T1 construct: the assay field says which; also called WT LILRB2; full-length LILRB2

[2] = molecular target: T2, full-length LILRB2 with mutations in AA 92-100 (Mut-8 aa) (human); test: flow cytometry, Angptl2 on 293T cells expressing mutant LILRB2
T2 construct: also called the full-length LILRB2 with the same mutation
Procedure: (§1) Flow cytometry. […] Cells were harvested at 48 h for analysis. […] Anti-LILRB2-PE was used as indicated. Cells were analyzed using either a FACSCalibur or FACSAria instrument (Becton Dickinson).

[3] = molecular target: T3, full-length LILRB2 G94D on 293T cells (human, UniProt Q8N423 22-597); test: as above
T3 construct: also called single mutation in G94
Procedure: as §1

[4] = molecular target: T4, full-length LILRB2 R95E on 293T cells (human, UniProt Q8N423 22-597); test: as above
T4 construct: also called single mutation in R95
Procedure: as §1

[5] = molecular target: T5, full-length LILRB2 Y96A on 293T cells (human, UniProt Q8N423 22-597); test: as above
T5 construct: also called single mutation in Y96
Procedure: as §1

[6] = molecular target: T1, human LILRB2, wild-type full-length, on …; test: flow cytometry, human cord blood mononuclear cells, anti-FLAG-APC and anti-human LILRB2-PE
Procedure: as §1

[7] = molecular target: B2; test: flow cytometry, Angptl2 on 293T cells expressing the mutant
Procedure: as §1

[8] = molecular target: B2; test: flow cytometry, Angptl2 on 293T cells expressing the domain
Procedure: as §1
LILRB2 contains four extracellular immunoglobulin (Ig)-like domains. Takai et al., J Biomed Biotechnol. 2011; 2011:275302. […] To test this hypothesis, a number of domain and site-specific mutations of LILRB2 were generated for the flow cytometry-based cell surface ligand binding assay and chimeric reporter assay.

binding result [1]: binds
B1: Angptl5-FLAG, secreted (ligand)
chain: NCVHHSTDSSVVNIVEDGSNAKDESKSNDTVCKEDCEESCDVKTKITREEKHFMCRNLQNSIVSYTRSTKKLLRNMMDEQQASLDYLSNQVNELMNRVLLLTTEVFRKQLDPFPHRPVQSHGLDCTDIKDTIGSVTKTPSGLYIIHPEGSSYPFEVMCDMDYRGGGWTVIQKRIDGIIDFQRLWCDYLDGFGDLLGEFWLGLKKIFYIVNQKNTSFMLYVALESEDDTLAYASYDNFWLEDETRFFKMHLGRYSGNAGDAFRGLKKEDNQNAMPFSTSDVDNDGCRPACLVNGQSVKSCSHLHNKTGWWFNECGLANLNGIHHFSGKLLATGIQWGTWTKNNSPVKIKSVSMKIRRMYNPYFK
notes: read as Angptl5; not shown: FLAG tag at the C terminus

Binder: B2
decrease of Angptl2 binding relative to the wild-type protein [2]: > 50% | reduction of Angptl2 binding [3]: 50% | reduction of Angptl2 binding [4]: 50% | reduction of Angptl2 binding [5]: 50%

binding result [6]: no binding
B3: fibrinogen-like domain (FBN) of Angptl2, FLAG-tagged (ligand)
chain: DKPSGPWRDCLQALEDGHDTSSIYLVKPENTNRLMQVWCDQRHDPGGWTVIQRRLDGSVNFFRNWETYKQGFGNIDGEYWLGLENIYWLTNQGNYKLLVTMEDWSGRKVFAEYASFRLEPESEYYKLRLGRYHGNAGDSFTWHNGKQFTTLDRDHDVYTGNCAHYQKGGWWYNACAHSNLNGVWYRGGHYRSRYQDGVYWAEFRGGSYSLKKVVMMIRPNPNTFH
notes: the whole Angptl2 entry is named; Migrates as a 37 kD monomer; also called FBN domain; fibrinogen domain; not shown: FLAG tag

binding result [7]: no binding
B4: full-length LILRB2 Y96A/G392D on 293T cells (receptor)
chain: QTGTIPKPTLWAEPDSVITQGSPVTLSCQGSLEAQEYRLYREKKSASWITRIRPELVKNGQFHIPSITWEHTGRAGCQYYSRARWSELSDPLVLVMTGAYPKPTLSAQPSPVVTSGGRVTLQCESQVAFGGFILCKEGEEEHPQCLNSQPHARGSSRAIFSVGPVSPNRRWSHRCYGYDLNSPYVWSSPSDLLELLVPGVSKKPSLSVQPGPVVAPGESLTLQCVSDVGYDRFVLYKEGERDLRQLPGRQPQAGLSQANFTLGPVSRSYGGQYRCYGAHNLSSECSAPSDPLDILITGQIRGTPFISVQPGPTVASGENVTLLCQSWRQFHTFLLTKAGAADAPLRLRSIHEYPKYQAEFPMSPVTSAHADTYRCYGSLNSDPYLLSHPSEPLELVVSGPSMGSSPPPTGPISTPGPEDQPLTPTGSDPQSGLGRHLGVVIGILVAVVLLLLLLLLLFLILRHRRQGKHWTSTQRKADFQHPAGAVGPEPTDRGLQWRSSPAADAQEENLYAAVKDTQPEDGVEMDTRAAASEAPQDVTYAQLHSLTLRRKATEPPPSQEREPPAEPSIYATLAIH
notes: also called Y96A combined with G392D

binding result [7]: no binding
B5: full-length LILRB2 Y96A/Y394A on 293T cells (receptor)
chain: QTGTIPKPTLWAEPDSVITQGSPVTLSCQGSLEAQEYRLYREKKSASWITRIRPELVKNGQFHIPSITWEHTGRAGCQYYSRARWSELSDPLVLVMTGAYPKPTLSAQPSPVVTSGGRVTLQCESQVAFGGFILCKEGEEEHPQCLNSQPHARGSSRAIFSVGPVSPNRRWSHRCYGYDLNSPYVWSSPSDLLELLVPGVSKKPSLSVQPGPVVAPGESLTLQCVSDVGYDRFVLYKEGERDLRQLPGRQPQAGLSQANFTLGPVSRSYGGQYRCYGAHNLSSECSAPSDPLDILITGQIRGTPFISVQPGPTVASGENVTLLCQSWRQFHTFLLTKAGAADAPLRLRSIHEYPKYQAEFPMSPVTSAHAGTARCYGSLNSDPYLLSHPSEPLELVVSGPSMGSSPPPTGPISTPGPEDQPLTPTGSDPQSGLGRHLGVVIGILVAVVLLLLLLLLLFLILRHRRQGKHWTSTQRKADFQHPAGAVGPEPTDRGLQWRSSPAADAQEENLYAAVKDTQPEDGVEMDTRAAASEAPQDVTYAQLHSLTLRRKATEPPPSQEREPPAEPSIYATLAIH
notes: also called Y96A combined with Y394A

binding result [8]: no binding
B6: LILRB2 Ig4 domain expressed on 293T cells (receptor)
chain: IRGTPFISVQPGPTVASGENVTLLCQSWRQFHTFLLTKAGAADAPLRLRSIHEYPKYQAEFPMSPVTSAHAGTYRCYGSLNSDPYLLSHPSEPLELVVSGPSMGSSPPPTGPISTPGPEDQPLTPTGSDPQSGLGRHL
notes: The range is stated for the chimeric reporter constructs; also called 4th Ig domain
